Data taken from PMC9820451, “Coprinopsis cinerea Galectin CGL1 Induces Apoptosis and Inhibits Tumor Growth in Colorectal Cancer Cells” (International Journal of Molecular Sciences, 2022).

Target: the molecule itself
Assay: dynamic light scattering; dilutions of the purified galectin filtered through 0.22 µm membranes, Zetasizer Nano-S; molecular weight estimated from the hydrodynamic radius; self-association, tetramer

B1: Coprinopsis cinerea galectin CGL1 (natural protein)
chain: MLYHLFVNNQIKLQDDFKAEAVATIRSSVFNSKGGTTVFNFLSAGENILLHISIRPGENAIVFNSRTKGGAWGPEERVPYAGKFKGPNPSITVLDHGDRFQILFDNATAIYYTKRIKENAAAIAYSAENSLFSSPVTVDIHGLLPPLPPA
notes: galectin CGL1 of Coprinopsis cinerea, full-length cgl1 amplified from genomic DNA of strain Okayama 7 (#130; ATCC MYA-4618), cloned into pET22b(+); No removal of the tag is told
stoichiometry N: 4
